Results from publication PMC9320966 (Arthritis & Rheumatology (Hoboken, N.j.), 2022).

Target: COMP in mouse joint cartilage (Mus musculus, UniProt Q9R0G6)
Test: immunostaining of cells or tissue

Sequence of COMP in mouse joint cartilage (Q9R0G6 20-755): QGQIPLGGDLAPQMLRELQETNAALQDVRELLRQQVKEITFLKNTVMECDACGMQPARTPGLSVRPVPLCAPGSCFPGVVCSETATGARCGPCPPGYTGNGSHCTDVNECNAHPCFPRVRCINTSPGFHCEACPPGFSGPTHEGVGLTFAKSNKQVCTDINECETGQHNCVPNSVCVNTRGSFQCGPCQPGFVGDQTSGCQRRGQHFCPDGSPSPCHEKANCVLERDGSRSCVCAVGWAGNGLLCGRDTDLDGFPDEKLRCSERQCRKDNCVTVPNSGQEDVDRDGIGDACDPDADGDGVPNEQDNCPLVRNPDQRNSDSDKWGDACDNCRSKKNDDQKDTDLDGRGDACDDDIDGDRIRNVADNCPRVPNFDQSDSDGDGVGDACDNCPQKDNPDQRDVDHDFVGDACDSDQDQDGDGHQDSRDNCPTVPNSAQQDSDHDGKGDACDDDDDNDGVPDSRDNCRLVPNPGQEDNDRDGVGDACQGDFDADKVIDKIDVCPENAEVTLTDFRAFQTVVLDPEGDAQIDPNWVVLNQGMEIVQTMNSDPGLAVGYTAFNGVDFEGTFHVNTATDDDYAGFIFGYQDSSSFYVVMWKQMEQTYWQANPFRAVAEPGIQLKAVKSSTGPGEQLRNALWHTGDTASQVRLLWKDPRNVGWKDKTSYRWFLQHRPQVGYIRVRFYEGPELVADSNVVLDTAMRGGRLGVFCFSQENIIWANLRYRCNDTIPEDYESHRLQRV

binding result: binds
B1: murine monoclonal anti-COMP antibody 15A11 (antibody, V domains shown)
VH: QVQLQQSGAELAKPGASVNLSCKASGYTFTNYWVHWVKQRPGQGLEWIGYINPSNTYISYNQQFKDKATLTADKSSSTAYMQLSRLTYEDSSVYYCARGGFFYDYDVWYFDVWGTGTTVTVSS
VL: DVLMTQIPLSLPVSLGDQASISCRSSQNIVHSNGNTYLEWYLQKPGQSPKLLIYKVSNRFSGVPDRFSGSGSGTDFTLKISRVEAEDLGVYYCFQGSHVPFTFGSGTKLEIK
